The chains are these.
B1: K284A: ZPI helix H site mutant (protein, UniProt Q9UK55 22-444, looked up, variant K284A)
Protein Z-dependent protease …: LAPSPQSPETPAPQNQTSRVVQAPKEEEEDEQEASEEKASEEEKAWLMASRQQLAKETSNFGFSLLRKISMRHDGNMVFSPFGMSLAMTGLMLGATGPTETQIKRGLHLQALKPTKPGLLPSLFKGLRETLSRNLELGLTQGSFAFIHKDFDVKETFFNLSKRYFDTECVPMNFRNASQAKRLMNHYINKETRGKIPKLFDEINPETKLILVDYILFKGKWLTPFDPVFTEVDTFHLDKYKTIKVPMMYGAGKFASTFDKNFRCHVLKLPYQGNATMLVVLMEAMGDHLALEDYLTTDLVETWLRNMKTRNMEVFFPKFKLDQKYEMHELLRQMGIRRIFSPFADLSELSATGRNLQVSRVLQRTVIEVDERGTEAVAGILSEITAYSMPPVIKVDRPFHFMIYEETSGMLLFLGRVVNPTLL
B2: K260A/R263A/R305A/K308A/R310A: ZPI helix H site quintuple mutant (protein, UniProt Q9UK55 22-444, looked up, variant K260A R263A R305A K308A R310A)
Protein Z-dependent protease …: B1 Protein Z-dependent protease … with K260A, R263A, A284K, R305A, K308A, R310A
B3: K284A/R310A: ZPI helix H site double mutant (protein, UniProt Q9UK55 22-444, looked up, variant K284A R310A)
Protein Z-dependent protease …: B1 Protein Z-dependent protease … with R310A
B4: K104A/R105A/K113A/K116A/K125A/R128A: ZPI mutant of the six basic residues in the helix C/D site (protein, UniProt Q9UK55 22-444, looked up, variant K104A R105A K113A K116A K125A R128A)
Protein Z-dependent protease …: B1 Protein Z-dependent protease … with K104A, R105A, K113A, K116A, K125A, R128A, A284K
B5: K253A/K260A/R263A/R305A/K308A/R310A: ZPI helix H site sextuple mutant (protein, UniProt Q9UK55 22-444, looked up, variant K253A K260A R263A R305A K308A R310A)
Protein Z-dependent protease …: B1 Protein Z-dependent protease … with K253A, K260A, R263A, A284K, R305A, K308A, R310A

Where a chain is given by its changes, count along the chain named. Names and notes keep the numbering of the source.

T1 sequence (P00742 235-488 limits assumed): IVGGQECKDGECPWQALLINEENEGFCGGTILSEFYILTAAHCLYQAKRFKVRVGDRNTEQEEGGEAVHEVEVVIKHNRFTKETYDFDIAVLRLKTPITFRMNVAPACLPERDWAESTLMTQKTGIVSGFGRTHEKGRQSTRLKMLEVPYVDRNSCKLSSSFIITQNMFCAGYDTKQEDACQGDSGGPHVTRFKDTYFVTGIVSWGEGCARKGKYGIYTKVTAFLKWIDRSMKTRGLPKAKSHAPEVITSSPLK
T1 sequence (P00742 41-179 limits assumed): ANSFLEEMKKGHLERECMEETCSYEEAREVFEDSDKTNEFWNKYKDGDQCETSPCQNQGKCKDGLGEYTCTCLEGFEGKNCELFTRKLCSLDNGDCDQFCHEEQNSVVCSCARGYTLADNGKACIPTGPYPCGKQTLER

One test concerns the target T1, FXa (Homo sapiens, UniProt P00742).
T1 construct: purchased Enzyme Research Laboratories
Description: PZ-accelerated ZPI–FXa reactions: kinetics and stoichiometry of inhibition. The test is classed as biochemical. Particulars: PZ-accelerated. How it is done:
(§1) Apparent second-order rate constants for unaccelerated and H50-accelerated ZPI–FXa reactions were measured in the absence and presence of the optimal H50 concentration under pseudo–first-order conditions by analyzing full ZPI–FXa reaction progress curves over the ZPI concentration range of 10 to 900 nM with ∼0.5 nM FXa. Full reaction progress curves were also measured for ZPI–FXa reactions in the presence of PZ equimolar with ZPI, 25 μM lipid, and 5 mM CaCl2, as a function of the ZPI concentration in the range of 10 to 40 nM. Identical reaction mixtures were quenched at varying reaction times with substrate, and the time course of protease inactivation was measured from the decrease in initial rates of substrate hydrolysis. The first-order rate of decrease in protease activity with time was computer fit by a single exponential decay function with a nonzero end point and kobs obtained from the fitted exponential decay constant. Apparent second-order association rate constants (ka,app) were obtained from the slopes of linear plots of kobs versus the ZPI concentration according to the equation, kobs=kd+ka,app × [ZPI]0
(§2) In which kd represents the rate constant for ZPI–FXa complex dissociation and [ZPI]o is the total ZPI concentration. kd was fixed at the experimentally determined value of 10^−4 s^−1 for WT and ZPI mutants as described ([18]).
(§3) Fixed concentrations of FXa (50–100 nM FXa) were reacted with increasing concentrations of ZPI, ranging from a approximately threefold to sevenfold molar excess, in the absence of cofactors or in the presence of either 1 μM H50 or PZ equimolar with ZPI, 25 μM lipid, and 5 mM CaCl2, in kinetics buffer at 25 °C in reaction volumes of 50 μl. After allowing sufficient time to reach a reaction end point, based on measured second-order associate rate constants (∼5–30 min), remaining proteolytic activity was measured by reacting an aliquot (5–20 μl) of the reaction mixtures with 1 ml of 100 μM Spectrozyme fXa (American Diagnostica) containing 50 μg/ml Polybrene and 5 mM EDTA and monitoring the rate of absorbance change at 405 nm. The apparent SI was determined from the fitted abscissa intercept of a linear plot of residual protease activity against the molar ratio of inhibitor to protease ([18]). Because the ZPI–PZ complex dissociates to a small extent over the reaction time, apparent SIs depend on the time of incubation. To correct for such complex dissociation, apparent SIs were multiplied by the factor, exp (−kd × t), where kd is the measured complex dissociation rate constant of 10^−4 s^−1 and t the fixed reaction time. Simulations verified the validity of this correction for small extents of dissociation. Reported SIs are average values of at least two independent measurements at different reaction times.
For B1, the SI is recorded as 3.3 ± 0.1 moles ZPI/mole FXa, the “ka,app × SI” value was 2.0 ± 0.1 × 10^7 M^−1 s^−1 and the “ka,app × SI relative to WT” value is given as “(0.45)”.

In the case of B2, the SI is on record as 4.5 ± 0.2 moles ZPI/mole FXa, the “ka,app × SI” value is reported as 1.8 ± 0.1 × 10^7 M^−1 s^−1 and the “ka,app × SI relative to WT” value is listed as “(0.41)”.

Consider B3, for which the SI stood at 3.3 ± 0.1 moles ZPI/mole FXa, the “ka,app × SI” value is reported as 2.1 ± 0.2 × 10^7 M^−1 s^−1 and the “ka,app × SI relative to WT” value is “(0.48)”.

B4: the SI is given as 7.7 ± 0.1 moles ZPI/mole FXa, the “ka,app × SI” value is reported as 8.5 ± 0.9 × 10^6 M^−1 s^−1 and the “ka,app × SI relative to WT” value is reported as “(0.19)”.

As for B5, the SI is 7.4 ± 0.3 moles ZPI/mole FXa, the “ka,app × SI” value was 2.5 ± 0.2 × 10^7 M^−1 s^−1 and the “ka,app × SI relative to WT” value is “(0.57)”.

The same test, now with this note: equimolar PZ, 25 μM phospholipid, 5 mM CaCl2, pH 7.4, 25 °C.
As for B1, the “ka,app” value was 6.2 ± 0.1 × 10^6 M^−1 s^−1.

As for B2, the “ka,app” value is given as 3.9 ± 0.1 × 10^6 M^−1 s^−1.

Take B3: the “ka,app” value is 6.4 ± 0.4 × 10^6 M^−1 s^−1.

Regarding B4, the “ka,app” value was 1.1 ± 0.1 × 10^6 M^−1 s^−1.

For the molecule B5, the “ka,app” value was 3.4 ± 0.1 × 10^6 M^−1 s^−1.

Still in this test, the particulars now being: ratio of PZ-accelerated to unaccelerated ka,app × SI.
B1: the PZ enhancement is given as 1733.

Turning to B2, the PZ enhancement came out at 2400.

Take B3: the PZ enhancement is listed as 3317.

As to B4, the PZ enhancement is reported as 904.

On to B5, for which the PZ enhancement turned out to be 8620.

Another test deals with T1, FXa. Put plainly: Unaccelerated ZPI–FXa reactions: kinetics and stoichiometry of inhibition. The test is classed as biochemical.
Conditions: not given
How it is done: as §1, §2, §3
Take B1: the SI is 2.3 ± 0.2 moles ZPI/mole FXa, the “ka,app × SI” value is given as 1.2 ± 0.2 × 10^4 M^−1 s^−1 and the “ka,app × SI relative to WT” value is reported as “(0.75)”.

Take B2: the SI is 2.9 ± 0.3 moles ZPI/mole FXa, the “ka,app × SI” value is recorded as 7.5 ± 0.9 × 10^3 M^−1 s^−1 and the “ka,app × SI relative to WT” value is listed as “(0.47)”.

With B3, the SI amounted to 1.9 ± 0.2 moles ZPI/mole FXa, the “ka,app × SI” value is reported as 6.3 ± 1.3 × 10^3 M^−1 s^−1 and the “ka,app × SI relative to WT” value is “(0.39)”.

Turning to B4, the SI came out at 3.4 ± 0.4 moles ZPI/mole FXa, the “ka,app × SI” value was 9.4 ± 1.6 × 10^3 M^−1 s^−1 and the “ka,app × SI relative to WT” value is on record as “(0.59)”.

With B5, the SI was determined as 3.2 ± 0.1 moles ZPI/mole FXa, the “ka,app × SI” value is 2.9 ± 0.2 × 10^3 M^−1 s^−1 and the “ka,app × SI relative to WT” value was “(0.18)”.

Staying with this test, now noted: absence of PZ, 2.5 mM CaCl2, pH 7.4, 25 °C.
Regarding B1, the “ka,app” value is on record as 5.0 ± 0.3 × 10^3 M^−1 s^−1.

As for B2, the “ka,app” value is given as 2.6 ± 0.1 × 10^3 M^−1 s^−1.

Take B3: the “ka,app” value is recorded as 3.3 ± 0.3 × 10^3 M^−1 s^−1.

As to B4, the “ka,app” value is 2.8 ± 0.1 × 10^3 M^−1 s^−1.

With B5, the “ka,app” value is given as 9.2 ± 0.6 × 10^2 M^−1 s^−1.

Another test concerns the target T1, FXa. Description: H50 heparin-accelerated ZPI–FXa reactions: kinetics and stoichiometry of inhibition. The test is classed as biochemical. Particulars: 1 μM H50. How it is done:
Heparin accelerating effects on the kinetics of ZPI–FXa reactions were evaluated as a function of heparin concentration under pseudo–first-order conditions (i.e., with a large molar excess of inhibitor over protease) by incubating reaction mixtures of 100 μl containing 70 nM ZPI and ∼0.5 nM FXa in the absence or presence of varying levels of H50 ranging from 10^−9 to 10^−4 M in 20 mM Tris buffer (pH 7.4), 0.1 M NaCl, 0.1% PEG 8000, 0.1 mg/ml BSA, and 2.5 mM CaCl2 at 25 °C for reaction times of 2 to 5 min. Reactions were quenched by adding 1 ml of 50 μM Pefafluor FXa substrate (Centerchem, Inc) containing 50 μg/ml polybrene and 5 mM EDTA. The initial linear rate of substrate hydrolysis was monitored at an excitation wavelength of 380 nm and an emission wavelength of 440 nm. The observed pseudo–first-order rate constant for reactions (kobs) was calculated from the equation, kobs=In([vo-v∞]/[vt-v∞])/t
where vt and v∞ are the initial velocities of protease hydrolysis of the substrate after reaction with ZPI for the fixed reaction time and after reaching the reaction end point, respectively, vo is the velocity measured in control reactions without ZPI, and t is the fixed reaction time. The dependence of kobs on heparin concentration was computer fit by nonlinear least squares analysis by the ternary complex bridging model equation ([10]).
as §1, §2
as §3, with “Simulations verified the validity of this correction for small extents of dissociation. Reported SIs are average values of at least two independent measurements at different reaction times.” left out
Turning to B1, the SI was 2.4 ± 0.1 moles ZPI/mole FXa, the “ka,app × SI” value is 9.2 ± 0.9 × 10^5 M^−1 s^−1 and the “ka,app × SI relative to WT” value is “(0.77)”.

Turning to B2, the SI came out at 2.9 ± 0.4 moles ZPI/mole FXa, the “ka,app × SI” value is 4.9 ± 0.7 × 10^4 M^−1 s^−1 and the “ka,app × SI relative to WT” value is “(0.04)”.

B3: the SI was 1.9 ± 0.1 moles ZPI/mole FXa, the “ka,app × SI” value is given as 3.7 ± 0.4 × 10^5 M^−1 s^−1 and the “ka,app × SI relative to WT” value was “(0.31)”.

Turning to B4, the SI was found to be 7.8 ± 2.0 moles ZPI/mole FXa, the “ka,app × SI” value is 6.6 ± 2.7 × 10^4 M^−1 s^−1 and the “ka,app × SI relative to WT” value is on record as “(0.06)”.

B5: the SI is 4.0 ± 0.2 moles ZPI/mole FXa, the “ka,app × SI” value is reported as 2.6 ± 0.3 × 10^4 M^−1 s^−1 and the “ka,app × SI relative to WT” value was “(0.02)”.

Staying with this test, now noted: 1 μM H50, 2.5 mM CaCl2, pH 7.4, 25 °C.
As to B1, the “ka,app” value is reported as 3.9 ± 0.2 × 10^5 M^−1 s^−1.

Consider B2, for which the “ka,app” value is reported as 1.7 ± 0.1 × 10^4 M^−1 s^−1.

As for B3, the “ka,app” value is reported as 2.0 ± 0.1 × 10^5 M^−1 s^−1.

As for B4, the “ka,app” value is 8.5 ± 1.3 × 10^3 M^−1 s^−1.

Consider B5, for which the “ka,app” value is reported as 6.4 ± 0.5 × 10^3 M^−1 s^−1.

Still in this test, the particulars now being: ratio of heparin-accelerated to unaccelerated ka,app × SI.
As for B2, the H50 rate enhancement amounted to 6.5 fold.

On to B3, for which the H50 rate enhancement came to 59 fold.

For B4, the H50 rate enhancement is reported as 7.0 fold.

The values are drawn from paper PMC9190012, “Heparin activation of protein Z-dependent protease inhibitor (ZPI) allosterically blocks protein Z activation through an extended heparin-binding site” (The Journal of Biological Chemistry, 2022).
